The supplement of paper PMC10126150
± gives the standard deviation of the averaged measurements.

system: ATP; assay: switch fluorescence ratio, 500 uM ATP over buffer (Cy3 cluster intensity, sum of 5 cycles each) (fold (ratio)); higher = stronger signal-on switching upon ATP binding; sequences stand for … in TCGTCGGCAGCGTCAGATGTGTATAAGAGACAGTTTTTTTTTTTTTTTTTTTTTTTTT…TC; conditions: aptamer strand: ATP DNA aptamer (quencher-CACCTGGGGGAGTATTGCGGAGGAAGG + anchor), 100 nM annealed; ATP concentration: 500 uM
How it was run: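 The fluorescence ratio divides summed target-cycle Cy3 intensity by summed buffer-cycle Cy3 intensity for each cluster and is averaged per switch-domain sequence. Cy3-labelled switching-strand clusters on a modified Illumina MiSeq flow-cell were annealed to 100 nM quencher-labelled ATP aptamer, then imaged in selection buffer and again after 15 min with 500 uM ATP at 22 °C. Five such cycles were run, with NaOH stripping and re-annealing between them, and clusters outside 100-1000 RFU were excluded.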
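Note: ATP exposure 15 min at 22 °C before imaging.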

| Sequence | switch fluorescence ratio |
| --- | --- |
| TTTTATGTG | 1.01 ± 0.021 |
| TTTTATGTTA | 0.977 ± 0.032 |
| TTTTATTGCA | 0.96835 ± 0.00073 |
| TTTTATTGGT | 0.9738 ± 0.0075 |
| TTTTATTTGT | 0.985 ± 0.0089 |
| TTTTCAACTA | 0.9949 ± 0.0024 |
| TTTTCACTTT | 1.01 ± 0.046 |
| TTTTCAGAAG | 0.997 ± 0.013 |
| TTTTCAGATT | 0.9601 ± 0.0086 |
| TTTTCAGGAA | 1.018 ± 0.0092 |
| TTTTCAGGGT | 1.01 ± 0.025 |
| TTTTCAGTTG | 1.002 ± 0.0029 |
| TTTTCATGCC | 1.09 ± 0.056 |
| TTTTCATTCG | 1 ± 0.033 |
| TTTTCATTTC | 1.01 ± 0.012 |
| TTTTCCCCCT | 1.081 ± 0.0069 |
| TTTTCCCCTC | 1.64 ± 1 |
| TTTTCCCGGA | 1.013 ± 0.0028 |
| TTTTCCGGCC | 1.72 ± 0.54 |
| TTTTCCGTGG | 1.01 ± 0.069 |
| TTTTCCTAAA | 1.06 ± 0.11 |
| TTTTCCTAAC | 0.999 ± 0.071 |
| TTTTCCTAGA | 1.004 ± 0.0057 |
| TTTTCCTAGT | 1.12 ± 0.073 |

| Sequence | switch fluorescence ratio |
| --- | --- |
| TTTTCCTGAG | 1.04 ± 0.035 |
| TTTTCCTTGT | 1.08 ± 0.13 |
| TTTTCGACGA | 1.27 ± 0.3 |
| TTTTCGCTTT | 1.09 ± 0.17 |
| TTTTCGGGTA | 1.02 ± 0.0091 |
| TTTTCGTCAA | 2.86 ± 2.4 |
| TTTTCGTCTC | 1.02 ± 0.019 |
| TTTTCGTGAA | 1.01 ± 0.021 |
| TTTTCGTGGT | 0.984 ± 0.017 |
| TTTTCGTTTG | 1 ± 0.074 |
| TTTTCTAAAT | 1.04 ± 0.076 |
| TTTTCTAGGG | 1.01 ± 0.017 |
| TTTTCTATCT | 1.06 ± 0.057 |
| TTTTCTATGG | 1 ± 0.082 |
| TTTTCTGGAA | 1.01 ± 0.029 |
| TTTTCTGTAT | 1.03 ± 0.052 |
| TTTTGAACGA | 1.01 ± 0.035 |
| TTTTGAAGAT | 1.009 ± 0.01 |
| TTTTGAAGGA | 1.01 ± 0.027 |
| TTTTGAAGTA | 1.0186 ± 0.00093 |
| TTTTGAATGG | 1.02 ± 0.04 |
| TTTTGAATTA | 1.01 ± 0.032 |
| TTTTGAGGCT | 1.01 ± 0.073 |
| TTTTGAGTAG | 0.987 ± 0.021 |

| Sequence | switch fluorescence ratio |
| --- | --- |
| TTTTGATCTT | 0.991 ± 0.012 |
| TTTTGATGCT | 0.998 ± 0.057 |
| TTTTGATGGG | 0.981 ± 0.055 |
| TTTTGATTGA | 1.03 ± 0.034 |
| TTTTGCAGCT | 1 ± 0.019 |
| TTTTGCATAT | 1.26 ± 0.42 |
| TTTTGCCATT | 0.999 ± 0.035 |
| TTTTGCCTAT | 1 ± 0.025 |
| TTTTGCGAAG | 1.03 ± 0.027 |
| TTTTGCTGCC | 1.027 ± 0.002 |
| TTTTGCTGGT | 1 ± 0.027 |
| TTTTGGAAAG | 0.987 ± 0.013 |
| TTTTGGACTC | 1.007 ± 0.006 |
| TTTTGGCCGG | 1.05 ± 0.035 |
| TTTTGGCGCG | 1 ± 0.061 |
| TTTTGGCTTT | 1 ± 0.034 |
| TTTTGGGAGT | 1 ± 0.026 |
| TTTTGGGCAT | 1.04 ± 0.11 |
| TTTTGGGGAA | 1 ± 0.024 |
| TTTTGGGGCC | 1 ± 0.032 |
| TTTTGGGGCG | 1.04 ± 0.055 |
| TTTTGGGTAA | 1.01 ± 0.0051 |
| TTTTGGTGTT | 1.02 ± 0.036 |
| TTTTGTAGGG | 0.969 ± 0.041 |

| Sequence | switch fluorescence ratio |
| --- | --- |
| TTTTGTAGTG | 0.988 ± 0.042 |
| TTTTGTGAGG | 1.04 ± 0.044 |
| TTTTGTGGG | 0.966 ± 0.046 |
| TTTTGTGGGT | 0.986 ± 0.022 |
| TTTTGTTACC | 1.02 ± 0.018 |
| TTTTGTTCAC | 1.01 ± 0.017 |
| TTTTGTTGAG | 1 ± 0.035 |
| TTTTGTTGGC | 1.04 ± 0.035 |
| TTTTGTTTA | 0.984 ± 0.022 |
| TTTTTAAAGG | 0.976 ± 0.013 |
| TTTTTAACGT | 1.02 ± 0.027 |
| TTTTTAAGCG | 1 ± 0.023 |
| TTTTTAATAC | 1.33 ± 0.29 |
| TTTTTAATAG | 0.9855 ± 0.002 |
| TTTTTAATTC | 1.03 ± 0.024 |
| TTTTTACAGT | 1.02 ± 0.048 |
| TTTTTACCGT | 1.12 ± 0.088 |
| TTTTTACGGT | 1.1 ± 0.15 |
| TTTTTAGCTG | 1.04 ± 0.058 |
| TTTTTAGGC | 1.01 ± 0.078 |
| TTTTTAGGCC | 0.999 ± 0.016 |
| TTTTTAGGGA | 0.99 ± 0.029 |
| TTTTTAGTCC | 1 ± 0.023 |
| TTTTTAGTGG | 0.981 ± 0.015 |

| Sequence | switch fluorescence ratio |
| --- | --- |
| TTTTTATAAG | 0.994 ± 0.019 |
| TTTTTATAAT | 1.01 ± 0.026 |
| TTTTTATATA | 0.997 ± 0.016 |
| TTTTTATCGT | 1.02 ± 0.017 |
| TTTTTATCTA | 1.01 ± 0.036 |
| TTTTTATGAA | 1.011 ± 0.0019 |
| TTTTTATGCT | 0.99 ± 0.035 |
| TTTTTATTCG | 0.994 ± 0.019 |
| TTTTTCAAGG | 1.01 ± 0.013 |
| TTTTTCAATA | 1.01 ± 0.023 |
| TTTTTCAATT | 0.982 ± 0.017 |
| TTTTTCACCG | 1.07 ± 0.079 |
| TTTTTCACTT | 1 ± 0.036 |
| TTTTTCAGAT | 1.03 ± 0.055 |
| TTTTTCAGTA | 0.981 ± 0.016 |
| TTTTTCATGT | 0.997 ± 0.044 |
| TTTTTCCGAG | 1.08 ± 0.025 |
| TTTTTCCGCA | 2.18 ± 0.83 |
| TTTTTCCGGT | 1.07 ± 0.13 |
| TTTTTCCGTG | 0.9819 ± 0.0037 |
| TTTTTCGGCC | 0.979 ± 0.026 |
| TTTTTCTACG | 1.2 ± 0.28 |
| TTTTTCTGCT | 0.9786 ± 0.0051 |
| TTTTTCTTCA | 1 ± 0.011 |

| Sequence | switch fluorescence ratio |
| --- | --- |
| TTTTTGAAT | 1.01 ± 0.021 |
| TTTTTGACC | 1.008 ± 0.0017 |
| TTTTTGAGCA | 1.05 ± 0.049 |
| TTTTTGAT | 0.972 ± 0.022 |
| TTTTTGATGA | 1.02 ± 0.015 |
| TTTTTGATTA | 0.986 ± 0.062 |
| TTTTTGATTT | 1.01 ± 0.036 |
| TTTTTGCATT | 1.038 ± 0.0028 |
| TTTTTGCCGA | 1.01 ± 0.052 |
| TTTTTGCCGG | 1.01 ± 0.014 |
| TTTTTGCGAA | 1.033 ± 0.0011 |
| TTTTTGCGGT | 0.978 ± 0.025 |
| TTTTTGCTGG | 0.99 ± 0.029 |
| TTTTTGCTTA | 0.993 ± 0.013 |
| TTTTTGGAAA | 1.01 ± 0.051 |
| TTTTTGGAGG | 1 ± 0.034 |
| TTTTTGGATT | 1 ± 0.032 |
| TTTTTGGCTA | 1 ± 0.021 |
| TTTTTGTCCA | 1 ± 0.041 |
| TTTTTGTCGT | 0.983 ± 0.025 |
| TTTTTGTTGC | 1.02 ± 0.02 |
| TTTTTTAACG | 0.9973 ± 0.0053 |
| TTTTTTACCC | 1.01 ± 0.028 |
| TTTTTTAGCT | 1.01 ± 0.055 |

| Sequence | switch fluorescence ratio |
| --- | --- |
| TTTTTTATTG | 0.989 ± 0.029 |
| TTTTTTCATA | 0.9974 ± 0.0093 |
| TTTTTTCCGC | 1.34 ± 0.35 |
| TTTTTTCCTT | 1.01 ± 0.034 |
| TTTTTTCGAA | 0.998 ± 0.032 |
| TTTTTTCGAG | 1 ± 0.05 |
| TTTTTTCGCG | 1 ± 0.016 |
| TTTTTTCTGA | 1.01 ± 0.028 |
| TTTTTTCTGT | 1.01 ± 0.029 |
| TTTTTTCTTT | 1.01 ± 0.033 |
| TTTTTTGAAC | 1.01 ± 0.03 |
| TTTTTTGAT | 1.01 ± 0.032 |
| TTTTTTGCAA | 1.06 ± 0.061 |
| TTTTTTGCG | 1.01 ± 0.063 |
| TTTTTTGGAC | 1.01 ± 0.045 |
| TTTTTTGGCG | 1.02 ± 0.15 |
| TTTTTTGGTT | 0.997 ± 0.026 |
| TTTTTTGTAA | 1.01 ± 0.036 |
| TTTTTTGTAG | 1.01 ± 0.016 |
| TTTTTTTAAG | 1 ± 0.018 |
| TTTTTTTCTT | 0.994 ± 0.024 |
| TTTTTTTGCA | 1 ± 0.024 |
| TTTTTTTGTT | 1 ± 0.034 |
